Values joined by “and” are separate entries in the source; they are usually repeats but may differ in a detail not shown here. Identical values can stand only once.
Each substance was assayed against T1, IFNα receptor 2 (IFNAR2) on THP-1 cells (human) (UniProt P48551) (assay: cell-based or functional assay).
T1 sequence (looked up): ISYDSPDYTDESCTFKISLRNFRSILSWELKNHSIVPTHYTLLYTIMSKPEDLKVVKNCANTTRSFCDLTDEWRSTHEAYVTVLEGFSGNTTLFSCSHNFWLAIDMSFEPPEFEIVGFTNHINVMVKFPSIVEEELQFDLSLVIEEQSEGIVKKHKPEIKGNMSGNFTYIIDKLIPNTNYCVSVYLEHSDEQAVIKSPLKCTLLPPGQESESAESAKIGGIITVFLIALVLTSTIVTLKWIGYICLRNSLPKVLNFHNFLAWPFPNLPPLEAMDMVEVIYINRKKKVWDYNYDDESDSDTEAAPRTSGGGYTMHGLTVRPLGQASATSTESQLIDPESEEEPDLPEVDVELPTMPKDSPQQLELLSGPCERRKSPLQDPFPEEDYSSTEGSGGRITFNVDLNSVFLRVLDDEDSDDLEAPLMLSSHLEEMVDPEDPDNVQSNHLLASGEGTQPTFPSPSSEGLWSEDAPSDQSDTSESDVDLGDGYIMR

Going from “6His H34pAF-30K PEG (from UniProt P01563 24-188) (ligand)” to “6His G37pAF (from UniProt P01563 24-188) (ligand)”, the pSTAT1 % (PEGASYS fixed as 100%) falls from 33.6% to 4.55%.

Going from “6His R125pAF-30K PEG (from UniProt P01563 24-188) (ligand)” to “6His K31pAF-30K PEG (from UniProt P01563 24-188) (ligand)”, the pSTAT1 % (PEGASYS fixed as 100%) rises from 47% to 62.5%.

Going from “6His K31pAF (from UniProt P01563 24-188) (ligand)” to “6His L117pAF-30K PEG (from UniProt P01563 24-188) (ligand)”, the pSTAT1 % (PEGASYS fixed as 100%) rises from 10.2% to 50.6%.

First: 6His L110pAF-30K PEG (from UniProt P01563 24-188) (ligand)
Second: 6His G37pAF-30K PEG (from UniProt P01563 24-188) (ligand)
The pSTAT1 % (PEGASYS fixed as 100%) of the first is lower: 27.8% for the first, 40.3% for the second.

Going from “6His T106pAF-30K PEG (from UniProt P01563 24-188) (ligand)” to “PEGASYS® (Peginterferon alfa-2a) (from UniProt P01563 24-188) (ligand)”, the pSTAT1 % (PEGASYS fixed as 100%) rises from 28.4% to 100%.

Going from “6His K134pAF-30K PEG (from UniProt P01563 24-188) (ligand)” to “6His E113pAF-30K PEG (from UniProt P01563 24-188) (ligand)”, the pSTAT1 % (PEGASYS fixed as 100%) rises from 22.5% to 54.7%.

Compared with “6His N45pAF-30K PEG (from UniProt P01563 24-188) (ligand)”, “6His H34pAF (from UniProt P01563 24-188) (ligand)” is higher in pSTAT1 % (PEGASYS fixed as 100%): 18.2% for the first, 25% for the second.

Going from “6His E41pAF-30K PEG (from UniProt P01563 24-188) (ligand)” to “6His F27pAF-30K PEG (from UniProt P01563 24-188) (ligand)”, the pSTAT1 % (PEGASYS fixed as 100%) rises from 25.2% to 66%.

Going from “6His F38S (from UniProt P01563 24-188) (ligand)” to “6His E41pAF (from UniProt P01563 24-188) (ligand)”, the pSTAT1 % (PEGASYS fixed as 100%) rises from 3.76% to 3.97%.

Compared with “6His P39pAF-30K PEG (from UniProt P01563 24-188) (ligand)”, “6His F38L (from UniProt P01563 24-188) (ligand)” is lower in pSTAT1 % (PEGASYS fixed as 100%): 52.9% for the first, 2.72% for the second.

Going from “6His N65pAF-30K PEG (from UniProt P01563 24-188) (ligand)” to “6His E107pAF (from UniProt P01563 24-188) (ligand)”, the pSTAT1 % (PEGASYS fixed as 100%) falls from > 532% to 6.43%.

Work on “6His R12pAF-30K PEG (from UniProt P01563 24-188) (ligand)” yielded a pSTAT1 % (PEGASYS fixed as 100%) of 138%.

First: 6His H34pAF-30K PEG (from UniProt P01563 24-188) (ligand)
Second: 6His G37pAF (from UniProt P01563 24-188) (ligand)
The pSTAT1 EC50 (pM) of the first is higher: 161 pM for the first, 21.8 pM for the second.

Compared with “6His R125pAF-30K PEG (from UniProt P01563 24-188) (ligand)”, “6His L117pAF-30K PEG (from UniProt P01563 24-188) (ligand)” is higher in pSTAT1 EC50 (pM): 225 pM for the first, 242 pM for the second.

Compared with “6His L110pAF-30K PEG (from UniProt P01563 24-188) (ligand)”, “6His G37pAF-30K PEG (from UniProt P01563 24-188) (ligand)” is higher in pSTAT1 EC50 (pM): 133 pM for the first, 193 pM for the second.

Compared with “PEGASYS® (Peginterferon alfa-2a) (from UniProt P01563 24-188) (ligand)”, “6His E113pAF-30K PEG (from UniProt P01563 24-188) (ligand)” is lower in pSTAT1 EC50 (pM): 479 pM for the first, 262 pM for the second.

Going from “6His E41pAF-30K PEG (from UniProt P01563 24-188) (ligand)” to “6His F27pAF-30K PEG (from UniProt P01563 24-188) (ligand)”, the pSTAT1 EC50 (pM) rises from 120 pM to 316 pM.

Compared with “6His E41pAF (from UniProt P01563 24-188) (ligand)”, “6His P39pAF-30K PEG (from UniProt P01563 24-188) (ligand)” is higher in pSTAT1 EC50 (pM): 19 pM for the first, 253 pM for the second.

Compared with “6His F38L (from UniProt P01563 24-188) (ligand)”, “6His N65pAF-30K PEG (from UniProt P01563 24-188) (ligand)” is higher in pSTAT1 EC50 (pM): 13 pM for the first, > 2860 pM for the second.

First: 6His E107pAF (from UniProt P01563 24-188) (ligand)
Second: 6His R12pAF-30K PEG (from UniProt P01563 24-188) (ligand)
The pSTAT1 EC50 (pM) of the first is lower: 30.8 pM for the first, 660 pM for the second.

In the case of “6HisC1G/C98 IFNα-2a + limitin loop (from UniProt P01563 25-188) (ligand)”, the pSTAT1 % (PEGASYS fixed as 100%) is reported as 6.27% and 7.27%.
“6His E107pAF-30K PEG (from UniProt P01563 24-188) (ligand)” was tested, and the pSTAT1 % (PEGASYS fixed as 100%) was 22.3% and 7.27%.

With “6HisC1G/C98 IFNα-2a + limitin loop (from UniProt P01563 25-188) (ligand)” the pSTAT1 EC50 (pM) was 30 pM and 34.8 pM.

From patent publication US20080119640A1
